The text below walks through data of US20150010566A1.

Holding throughout (assay): cell-based or functional assay
The target of assay [1] is HA of Influenza H3N2 (A/Swine/St. Oedenrode/1996), on infected MDCK cells or on virus (Influenza A virus H3N2 A/Swine/St. Oedenrode/1996 (host Swine)).
Assay [2] deals with HA of Influenza H1N1 (A/Neth/602/2009), on infected MDCK cells or on virus (Influenza A virus H1N1 A/Neth/602/2009 (host Human)).
The target in assay [3] is HA of low pathogenic H7N1 (A/Ch/Italy/1067/1999), on infected MDCK cells or on virus (Influenza A virus H7N1 A/Ch/Italy/1067/1999 (host Chicken)).
Assay [4] addresses HA of high pathogenic H7N7 (A/Ch/Neth/621557/03), on infected MDCK cells or on virus (Influenza A virus H7N7 A/Ch/Neth/621557/03 (host Chicken)).
The target in assay [5] is HA of H5N1 A/turkey/Turkey/05 virus (Influenza A virus H5N1 A/turkey/Turkey/05).

In the case of CR8020 (antibody), the IC50, in vitro virus neutralization on MDCK cells in assay [1] is > 15 µg/mL; in assay [2] it was > 15 µg/mL; in assay [3], > 15 µg/mL; in assay [4], 0.6 µg/mL; in assay [5], > 15 µg/mL.
